The target in the test is T1, human NaX channel (human, UniProt Q01118 1-1682).
T1 construct: Full-length human NaX (sodium channel protein type 7 subunit alpha, gene SCN7A), cloned into a pRK vector behind a CMV promoter; Co-expressed and co-purified with untagged β3; No removal of the tags is described; also called SCN7A; source: Expi293 cells, co-transfected with β3, purified (anti-FLAG M2 agarose, Strep-Tactin XT, Superose 6); not shown: 2xStrepII, N-terminal, kept; 2xFLAG, …
As to the kind of experiment: cryo-EM structure; β3-NaX complex co-expressed in Expi293, purified in GDN by the tags on NaX, reconstituted into POPC:POPE:POPG nanodiscs (MSP1E3D1); 25 mM HEPES pH 7.0, 200 mM NaCl; cross-linked with 0.05% glutaraldehyde before vitrification. Particulars: both partners purified.

T1 sequence (Q01118 whole entry): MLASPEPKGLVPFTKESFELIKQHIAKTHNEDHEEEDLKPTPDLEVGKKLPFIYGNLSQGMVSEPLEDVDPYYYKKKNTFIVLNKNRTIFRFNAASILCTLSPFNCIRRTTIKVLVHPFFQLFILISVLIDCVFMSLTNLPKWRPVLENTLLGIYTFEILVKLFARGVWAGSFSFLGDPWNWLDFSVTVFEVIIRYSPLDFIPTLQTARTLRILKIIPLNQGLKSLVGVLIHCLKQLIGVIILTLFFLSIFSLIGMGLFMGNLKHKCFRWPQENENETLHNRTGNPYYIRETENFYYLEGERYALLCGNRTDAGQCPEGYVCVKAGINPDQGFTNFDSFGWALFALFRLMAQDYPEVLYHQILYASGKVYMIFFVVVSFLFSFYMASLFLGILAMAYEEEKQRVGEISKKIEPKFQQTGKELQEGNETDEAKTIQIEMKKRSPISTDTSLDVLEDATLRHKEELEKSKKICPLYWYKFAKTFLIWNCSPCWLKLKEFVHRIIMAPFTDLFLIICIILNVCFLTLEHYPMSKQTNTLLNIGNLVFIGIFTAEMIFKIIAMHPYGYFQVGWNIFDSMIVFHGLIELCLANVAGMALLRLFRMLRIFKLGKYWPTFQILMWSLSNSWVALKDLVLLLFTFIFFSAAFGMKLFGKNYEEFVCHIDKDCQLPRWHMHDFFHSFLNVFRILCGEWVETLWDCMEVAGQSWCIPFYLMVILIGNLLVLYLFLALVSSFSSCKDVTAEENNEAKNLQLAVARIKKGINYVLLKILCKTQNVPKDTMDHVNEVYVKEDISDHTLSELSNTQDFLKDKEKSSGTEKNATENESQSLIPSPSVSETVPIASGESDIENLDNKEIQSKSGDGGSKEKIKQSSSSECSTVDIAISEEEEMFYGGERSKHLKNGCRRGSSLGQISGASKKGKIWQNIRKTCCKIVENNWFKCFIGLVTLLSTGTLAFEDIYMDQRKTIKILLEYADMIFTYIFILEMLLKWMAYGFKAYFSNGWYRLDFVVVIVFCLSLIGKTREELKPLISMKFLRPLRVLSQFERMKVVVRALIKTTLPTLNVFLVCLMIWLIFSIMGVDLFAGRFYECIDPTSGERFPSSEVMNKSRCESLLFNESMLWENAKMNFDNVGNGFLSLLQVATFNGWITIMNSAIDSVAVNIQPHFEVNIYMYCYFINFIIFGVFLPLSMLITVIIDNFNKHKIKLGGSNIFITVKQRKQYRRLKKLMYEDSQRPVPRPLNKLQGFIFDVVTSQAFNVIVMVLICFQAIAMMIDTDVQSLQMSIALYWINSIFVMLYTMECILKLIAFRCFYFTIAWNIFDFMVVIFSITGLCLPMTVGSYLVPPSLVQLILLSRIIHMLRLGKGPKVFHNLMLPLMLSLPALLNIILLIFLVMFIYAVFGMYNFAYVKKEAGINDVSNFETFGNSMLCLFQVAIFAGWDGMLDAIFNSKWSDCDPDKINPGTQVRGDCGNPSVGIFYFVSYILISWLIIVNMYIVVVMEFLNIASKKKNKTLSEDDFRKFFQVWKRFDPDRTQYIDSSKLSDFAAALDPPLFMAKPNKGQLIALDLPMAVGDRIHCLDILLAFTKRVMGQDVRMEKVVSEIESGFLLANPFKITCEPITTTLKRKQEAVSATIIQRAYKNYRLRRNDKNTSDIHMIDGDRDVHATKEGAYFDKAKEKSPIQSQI

B1: human β3-subunit (auxiliary NaV channel β3) (natural protein, UniProt Q9NY72 23-215, looked up)
chain: FPVCVEVPSETEAVQGNPMKLRCISCMKREEVEATTVVEWFYRPEGGKDFLIYEYRNGHQEVESPFQGRLQWNGSKDLQDVSITVLNVTLNDSGLYTCNVSREFEFEAHRPFVKTTRLIPLRVTEEAGEDFTSVVSEIMMYILLVFLTLWLLIEMIYCYRKVSKAEEAAQENASDYLAIPSENKENSAVPVEE
notes: Untagged full-length human sodium channel auxiliary β3-subunit, cloned into a pRK vector behind a CMV promoter; The full-length cDNA was expressed; also called NaVβ3; source: Expi293 cells, co-transfected with NaX, co-purified with tagged NaX
Turning to B1, the binding result is recorded as “binds”.
